The values below come from paper PMC11542177, “Recurrent Neurodevelopmentally Associated Variants of the Pre-mRNA Splicing Factor U2AF2 Alter RNA Binding Affinities and Interactions”.

Some targets named below: U2AF2 12L WT (UniProt P26368 141-342); U2AF2 12L Arg150His (UniProt P26368 141-342, R150H); U2AF2 12L Arg150Cys (UniProt P26368 141-342, R150C); U2AF2 12L Arg149Trp (UniProt P26368 141-342, R149W).
What all share (assay): fluorescence anisotropy; Fluorescence anisotropy: 25 nM RNA, 100 mM NaCl, 25 mM HEPES pH 6.8, 0.2 mM TCEP; temperature not stated; three replicates
Settings in all cases: protein: recombinant; label: 5'-fluorescein; single strand

U2AF2 12L Arg150Cys, sequence (P26368 141-342 R150C): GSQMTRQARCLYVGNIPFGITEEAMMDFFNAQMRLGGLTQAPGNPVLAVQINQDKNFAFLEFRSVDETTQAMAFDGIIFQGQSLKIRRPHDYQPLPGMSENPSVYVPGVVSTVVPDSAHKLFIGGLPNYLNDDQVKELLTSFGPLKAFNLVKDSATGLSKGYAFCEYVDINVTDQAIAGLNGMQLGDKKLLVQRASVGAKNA
U2AF2 12L Arg149Trp, sequence (P26368 141-342 R149W): as the sequence (P26368 141-342 R150C) above, with R9W, C10R counted along it
U2AF2 12L WT, sequence (P26368 141-342): as the sequence (P26368 141-342 R150C) above, with C10R counted along it
U2AF2 12L Arg150His, sequence (P26368 141-342 R150H): as the sequence (P26368 141-342 R150C) above, with C10H counted along it

For the molecule UUUUUUUUU (ssRNA) [nine-uridine consensus Py tract RNA], in the data set with U2AF2 12L WT, the binding result is on record as “binds”. Further, the results for the binding signal in the data set with U2AF2 12L Arg150His, with U2AF2 12L Arg150Cys and in the data set with U2AF2 12L Arg149Trp were ~4 fold decrease in affinity vs WT, ~5 fold decrease in affinity vs WT and ~3 fold decrease in affinity vs WT, respectively.
